The EC50 (read off the curve) is the midpoint of the concentration-response curve. A lower EC50 (read off the curve) goes with higher potency in that assay. By EC50 is commonly meant the concentration needed to bring the measured effect to its halfway point. Low values mean higher potency in that assay, high ones lower potency in that assay.

Assay [1] has as its target TCR alpha/beta on Jurkat cells (human). Kind of assay: flow cytometry on Jurkat cells (CD3+ and TCRab+), PE-labeled secondary reagent. On the technique in general: Flow cytometry measures light scatter and fluorescence of single cells or particles in a stream.
Assay [2] concerns the target CD3 (CD3ε/δ-complex) on T cells (human) (UniProt P07766). Kind of assay: flow cytometry on Jurkat cells (CD3+, TCRab+), bound TCER stained with a PE-labeled secondary reagent.
For assay [3] the target is unchanged. Kind of assay: flow cytometry on Jurkat cells (CD3+ and TCRab+), PE-labeled secondary reagent.

Sequence of UniProt P07766 (P07766 23-207, stated change not applied, chain 1 of 2): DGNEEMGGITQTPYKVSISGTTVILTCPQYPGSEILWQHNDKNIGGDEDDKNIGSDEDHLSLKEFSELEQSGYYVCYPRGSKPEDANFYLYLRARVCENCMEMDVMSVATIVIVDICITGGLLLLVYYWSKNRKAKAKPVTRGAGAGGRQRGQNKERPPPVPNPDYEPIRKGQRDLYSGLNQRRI
Sequence of UniProt P07766 (P04234 22-171, stated change not applied, chain 2 of 2, further chain): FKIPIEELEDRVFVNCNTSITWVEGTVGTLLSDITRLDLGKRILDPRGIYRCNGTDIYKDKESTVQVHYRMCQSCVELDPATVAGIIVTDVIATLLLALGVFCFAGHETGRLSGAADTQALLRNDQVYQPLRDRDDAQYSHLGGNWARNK

B1: PRAME-004 targeting TCER® molecule with the recruiting domains of humanized BMA031(V10) (protein)
chain 1: QIQMTQSPSSLSASVGDRVTITCSATSSVSYMHWYQQKPGKAPKRWIYDTSKLASGVPSRFSGSGSGTDYTLTISSLQPEDAATYYCQQWSSNPLTFGGGTKVEIKGGGSGGGGKAGVTQTPRYLIKTRGQQVTLSCSPIPGHRSVSWYRQTPGQGLQFLFEYVHGEERNKGNFPGRFSGRQFSNSSSEMNISNLELGDSALYLCASSPWDSPNVQYFGPGTRLTVTEDLKNEPKSSDKTHTCPPCPAPPVAGPSVFLFPPKPKDTLMISRTPEVTCVVVDVSHEDPEVKFNWYVDGVEVHNAKTKPREEQYQSTYRVVSVLTVLHQDWLNGKEYKCKVSNKALPASIEKTISKAKGQPREPQVYTLPPCRDELTKNQVSLWCLVKGFYPSDIAVEWESNGQPENNYKTTPPVLDSDGSFFLYSKLTVDKSRWQQGNVFSCSVMHEALHNHYTQKSLSLSP
chain 2: QKEVEQNSGPLSVPEGAIASLNCTYSDRGSQSFFWYRQYSGKSPELIMSIYSNGDKKDGRFTAQLNKASQYVSLLIRDSQPSDSATYLCAAVIDNDQGGILTFGTGTRLTIIPNIQNGGGSGGGGEVQLVQSGAEVKKPGASVKVSCKASGYKFTSYVMHWVRQAPGQGLEWMGYINPYNDVTKYAEKFQGRVTLTSDTSTSTAYMELSSLRSEDTAVHYCARGSYYDYDGFVYWGQGTLVTVSSEPKSSDKTHTCPPCPAPPVAGPSVFLFPPKPKDTLMISRTPEVTCVVVDVSHEDPEVKFNWYVDGVEVHNAKTKPREEQYQSTYRVVSVLTVLHQDWLNGKEYKCKVSNKALPASIEKTISKAKGQPREPQVCTLPPSRDELTKNQVSLSCAVKGFYPSDIAVEWESNGQPENNYKTTPPVLDSDGSFFLVSKLTVDKSRWQQGNVFSCSVMHEALHNHYTQKSLSLSP
On to B1, for which the fold weaker binding than the UCHT1-based TCER®-molecule in assay [1] fell in the range of 50 to 100 fold.

B2: PRAME-004 targeting TCER® molecule with the recruiting domains of humanized UCHT1(V17) (protein)
chain 1: QKEVEQNSGPLSVPEGAIASLNCTYSDRGSQSFFWYRQYSGKSPELIMSIYSNGDKEDGRFTAQLNKASQYVSLLIRDSQPSDSATYLCAAVIDNDQGGILTFGTGTRLTIIPNIQNGGGSGGGGDIQMTQSPSSLSASVGDRVTITCRASQDIRNYLNWYQQKPGKAPKLLIYYTSRLHSGVPSRFSGSGSGTDYTLTISSLQPEDIATYFCQQGQTLPWTFGQGTKVEIKEPKSSDKTHTCPPCPAPPVAGPSVFLFPPKPKDTLMISRTPEVTCVVVDVSHEDPEVKFNWYVDGVEVHNAKTKPREEQYQSTYRVVSVLTVLHQDWLNGKEYKCKVSNKALPASIEKTISKAKGQPREPQVYTLPPCRDELTKNQVSLWCLVKGFYPSDIAVEWESNGQPENNYKTTPPVLDSDGSFFLYSKLTVDKSRWQQGNVFSCSVMHEALHNHYTQKSLSLSPGK
chain 2: EVQLVQSGAEVKKPGASVKVSCKASGYSFTGYTMNWVRQAPGQGLEWMGLINPYKGVSTYAQKFQDRVTLTVDKSTSTAYMELSSLRSEDTAVYYCARSGYYGDSDWYFDVWGQGTLVTVSSGGGSGGGGKAGVTQTPRYLIKTRGQQVTLSCSPIPGHRAVSWYQQTPGQGLQFLFEYVHGEERNKGNFPGRFSGRQFSNSSSEMNISNLELGDSALYLCASSPWDSPNVQYFGPGTRLTVTEDLKNEPKSSDKTHTCPPCPAPPVAGPSVFLFPPKPKDTLMISRTPEVTCVVVDVSHEDPEVKFNWYVDGVEVHNAKTKPREEQYQSTYRVVSVLTVLHQDWLNGKEYKCKVSNKALPASIEKTISKAKGQPREPQVCTLPPSRDELTKNQVSLSCAVKGFYPSDIAVEWESNGQPENNYKTTPPVLDSDGSFFLVSKLTVDKSRWQQGNVFSCSVMHEALHNHYTQKSLSLSPGK
Regarding B2, in assay [2], the EC50 (read off the curve) came out at 2 nM. Also, the EC50 in assay [3] lay in the range of 2 to 3 nM.

(Values after patent publication US20230203200A1.)
